Laboratory results published in US20230235005A1 (INHIBRX, published 2023).

Assays:
[1] = target: T1, heterotrimeric IL-2R (CD25, CD122 and CD132) on transiently transfected 293F cells (UniProt P01589 22-272; P14784 27-551; P31785 23-369, limits assumed); assay: flow cytometry on transiently transfected 293F cells
T1 construct: whole, on cells
T1 sequence (looked up) 1: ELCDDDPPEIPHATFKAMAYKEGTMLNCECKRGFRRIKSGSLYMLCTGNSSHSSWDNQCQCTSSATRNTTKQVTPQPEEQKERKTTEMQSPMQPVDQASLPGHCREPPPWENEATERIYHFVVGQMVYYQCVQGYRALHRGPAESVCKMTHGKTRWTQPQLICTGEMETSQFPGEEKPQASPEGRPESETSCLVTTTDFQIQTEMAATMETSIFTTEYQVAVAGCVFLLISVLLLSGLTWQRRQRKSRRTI
T1 sequence (looked up) 2: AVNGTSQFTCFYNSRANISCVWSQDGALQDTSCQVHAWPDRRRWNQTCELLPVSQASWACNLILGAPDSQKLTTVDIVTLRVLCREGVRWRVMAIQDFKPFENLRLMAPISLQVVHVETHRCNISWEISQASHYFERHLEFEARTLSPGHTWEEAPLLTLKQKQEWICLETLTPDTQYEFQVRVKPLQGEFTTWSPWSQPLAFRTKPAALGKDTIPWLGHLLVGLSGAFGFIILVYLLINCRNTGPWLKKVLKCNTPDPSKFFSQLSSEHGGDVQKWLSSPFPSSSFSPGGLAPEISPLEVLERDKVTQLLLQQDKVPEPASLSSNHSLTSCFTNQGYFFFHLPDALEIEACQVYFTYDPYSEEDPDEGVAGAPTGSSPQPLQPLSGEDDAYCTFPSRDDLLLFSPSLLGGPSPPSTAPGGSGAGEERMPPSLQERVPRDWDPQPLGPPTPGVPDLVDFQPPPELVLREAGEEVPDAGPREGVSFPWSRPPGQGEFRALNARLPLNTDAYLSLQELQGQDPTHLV
T1 sequence (looked up) 3: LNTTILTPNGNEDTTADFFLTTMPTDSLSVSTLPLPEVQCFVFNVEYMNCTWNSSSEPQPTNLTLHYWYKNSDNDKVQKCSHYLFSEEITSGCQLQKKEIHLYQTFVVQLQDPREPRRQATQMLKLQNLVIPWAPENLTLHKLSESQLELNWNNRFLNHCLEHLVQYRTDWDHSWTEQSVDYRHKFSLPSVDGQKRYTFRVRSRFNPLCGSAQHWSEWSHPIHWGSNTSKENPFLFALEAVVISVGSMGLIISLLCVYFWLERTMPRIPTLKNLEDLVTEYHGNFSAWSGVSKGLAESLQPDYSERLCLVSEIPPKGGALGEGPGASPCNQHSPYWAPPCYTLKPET

[2] = target: T2, CD122/CD132 (heterodimeric IL-2R) on transiently transfected 293F cells (UniProt P14784 27-551; P31785 23-369, limits assumed); assay: as above
T2 construct: whole, on cells; also called CD122 and CD132
T2 sequence (looked up) 1: T1 sequence (looked up) 2
T2 sequence (looked up) 2: T1 sequence (looked up) 3

B1: fusion protein comprising triple mutant IL-2 P65R-H16A-D84S (IL-2-RAS) fused to the N-terminus of the knob half of a heterodimeric Fc, paired with a hole Fc (Fc fusion)
chain 1: APTSSSTKKTQLQLEALLLDLQMILNGINNYKNPKLTRMLTFKFYMPKKATELKHLQCLEEELKRLEEVLNLAQSKNFHLRPRSLISNINVIVLELKGSETTFMCEYADETATIVEFLNRWITFCQSIISTLTPGGGGDKTHTCPPCPAPGGPSVFLFPPKPKDTLMISRTPEVTCVVVDVSHEDPEVKFNWYVDGVEVHNAKTKPREEQYNSTYRVVSVLTVLHQDWLNGKEYKCKVSNKALPAPIEKTISKAKGQPREPQVYTLPPCRDELTKNQVSLWCLVKGFYPSDIAVEWESNGQPENNYKTTPPVLDSDGSFFLYSKLTVDKSRWQQGNVFSCSVMHEALHNHYTQKSLSLSPGK
chain 2: KPGGGGDKTHTCPPCPAPGGPSVFLFPPKPKDTLMRSRTPEVTCVVVDVSHEDPEVKFNWYVDGVEVHNAKTKPREEQYNSTYRVVSVLTVLHQDWLNGKEYKCKVSNKALPAPIEKTISKAKGQPREPQVCTLPPSRDELTKNQVSLSCAVKGFYPSDIAVEWESNGQPENNYKTTPPVLDSDGSFFLVSKLTVDKSRWQQGNVFSCSVMHEALHNHYTQKSLSLSPGK
notes: also called IL-2-RAS-xELL knob Fc
Q: Does B1 bind [1]?
A: Result: binds

Q: Does B1 bind [2]?
A: Result: binds
